No end group written: not given here.
Columns and labels:
[1] = biological target: SIRT2 (residues 38–356 of the full-length human SIRT2) (human) (UniProt Q8IXJ6)
[2] = biological target: T1, SIRT2 (residues 38–356 of the full-length human SIRT2) (human, UniProt Q8IXJ6 38-356); assay: crystal structure; 10 mg/mL SIRT2 in 20 mM Tris, 50 mM NaCl, pH 7.5 preincubated on ice with 10 mM BHJH-TM1 for about 1 h; hanging drop, 25% PEG 3350, 0.1 M Hepes pH 7.5; 2.1 Å, two subunits in the asymmetric unit; settings: both partners purified
T1 construct: NAD-dependent protein deacylase sirtuin-2 (SIRT2), human, residues 38-356 of the full-length protein; Cloned into pET28b(+) with an N-terminal hexahistidine and sumo tag; The tag was cut off by Ulp1 and removed on a second Ni-NTA column; source: E. coli BL21 (DE3), purified (Ni-NTA, Ulp1 cleavage, second Ni-NTA, Superdex G200); not shown: His6, N-terminal, cleaved; SUMO, N-terminal, cleaved
T1 sequence (looked up): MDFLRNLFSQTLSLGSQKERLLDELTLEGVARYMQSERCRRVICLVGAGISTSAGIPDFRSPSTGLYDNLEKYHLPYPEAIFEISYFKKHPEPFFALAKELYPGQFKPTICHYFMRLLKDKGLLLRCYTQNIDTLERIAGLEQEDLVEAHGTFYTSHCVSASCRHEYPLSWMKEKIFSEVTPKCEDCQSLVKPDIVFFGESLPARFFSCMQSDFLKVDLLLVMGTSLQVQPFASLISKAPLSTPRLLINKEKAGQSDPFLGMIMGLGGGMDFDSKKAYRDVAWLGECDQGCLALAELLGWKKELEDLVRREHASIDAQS

H3K9 myristoyl peptide (histone H3 Lys9 peptide bearing a myristoyl group)
Km of demyristoylation of the H3K9 myristoyl peptide by SIRT2 (HPLC kinetics, 0.2 μM SIRT2, 1 mM NAD, 37°C, peptide 0.25-32 μM) [1]: 0.24 µM

PKK(thiomyristoyl)TG (also called Myr Peptide (PKK(Tmy)TG)) [BHJH-TM1 thiomyristoyl peptide (PKK(TMy)TG)]
binding result [2]: binds

Reference: publication PMC4894398, “Efficient Demyristoylase Activity of SIRT2 Revealed by Kinetic and Structural Studies” (Scientific Reports, 2015)
